Measurements taken from patent publication US20150320848A1.

Assays:
Assay in all cases: REVEAL MHC-peptide binding assay; score relative to positive control
HLA-DR4 = target: HLA-DR4
HLA-DR5 = target: HLA-DR5
HLA-DR1 = target: HLA-DR1
HLA-DR2 = target: HLA-DR2
HLA-DR7 = target: HLA-DR7

Measured: binding score (% compared to the positive control)

B1: ERGIC1-001 (peptide)
peptide: FEGQFSINKVPGNFHVS
> 15%: HLA-DR4 | HLA-DR5

B2: GALNT7-001 (peptide)
peptide: GNQLFRINEANQLMQ
not listed: HLA-DR5
> 15%: all other assays above
